Data from the nanobody polyreactivity screen of Harvey et al. (2022).

Assay: yeast display, Sf9 membrane polyspecificity reagent, FACS + sequencing; frameworks hold sequencing errors
Outline: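 Galactose-induced (36–48 hours) yeast carrying a synthetic nanobody display library were exposed to 10% biotinylated, detergent-solubilized Sf9 membrane reagent at 4 °C for 1 hour. FACS followed streptavidin microbead enrichment, using low and high (top ~1%) gates for expression (anti-HA) and reagent binding (streptavidin). Colony PCR, MiSeq 2 × 250 sequencing and CDR-length filtering followed. Labels for polyreactivity reflect the gate of origin.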

Row | Sequence | polyreactivity (PSR sort gate)
1 | QVQLVESGGGLVQAGGSLRLSCAASGRIFWTYAMGWYRQAPGKERELVAAINSSGGTTYYADSVKGRFTISRDNAKNTVYLQMNSLKPEDTAVYYCSVRGRYYYRRPQISYDYGGQGTQVTVSS | low polyreactivity
2 | QVQLVESGGGLVQAGGSLRLSCAASGLTFYLYVMGWYRQAPWKERELVAAISRRGGSTYYADSVKGRFTISRDNAKNTVYLQMNSLKPEDTAVYYCAARVYGTYRGIQYGYWGQGTQVTVSS | high polyreactivity
3 | QVQLVESGGGLVQAGGSRRLSCAATGRTFGRYSMGWDRQAPGKERELVAAITTIGGSTYYADSVKGRFTISRDNAKNTVYLQMNSLKTEDTAVYYCAAGWVTNSDGMDYWGQGTQVTVSS | low polyreactivity
4 | QVQLVESGGGLVQAGGSLRLSCAASGSTFVPNAMGGSRPAPGKERELVAAISYSGGTTYYADSVKGRFTISRDNAKNTVYLQMNSLKPEDTAVYYCAARSKGAAAILDDYWGQGTQVTVSS | low polyreactivity
5 | QVQLVESGGGLVQAGGRLRLSCAASGIIFAWYAMGWSRQAPGKERELVAAITSGGSTYYADSVKGRFTISRDNAKNTVYLQMNSLKPDDTAVYYCAASDASTGYLGRHYYWGPGTQVTVSS | high polyreactivity
6 | QVQLVESGGGLVQAGGSLRLSCAASGSIFIYYTMGWYRQAPGKERELVAAISWRGGRTYYADSVKGRFTISRDNAKNTVYLQMNSLKPEDTAVYYCNAQPSVYYGRWGLNYGYWGQGTQVTVSS | high polyreactivity
7 | QVQLVESGGGLFQAGGSLRLSCAASGFTFYVYAMGWYRQAPGKERELVAAISSGGGSTYYADSVKGRFTISRDNAKNTVYLQMNSLKPEDTAVYYCNKLFPGTYDGAHGYWGQGTQVTVSS | low polyreactivity
8 | QVQLVESGGGLVQAGGSLRLSCAPSGSIFKQYAMGWYRQAPGKERELVARITGSGGSTYYTDSVKGRFTISRDNAKNTVYLQMNSLKPEDTAVYYCNAGGRDAGYDYWGQGTQVTVSS | low polyreactivity
9 | QVQLVESGGGLVQAGGSLRLSCAASGSIFESYAMGCYRQAPGKERELVAAITKRGGSTYYADSVKGRFTISRDNSKNTFYLQMNSLKPEDTAVYYCNARSPGIGPIYDYWGQGTQVTVSS | low polyreactivity
10 | QVQLVESGGGLVQAGGSLRLSCAASGITFSSYAMGWYRQAPGKERELVAAISYGGGNTYYADSVKGRFTISRDNAKNTVYLQMNSLKPEDTAVYYCNTLYTSYSGLDYWGQGTQVTVSS | high polyreactivity
11 | QVQLVESGGGLVQAGGSLRLICAASGRTYRLYAMGWYRQAPGKERELVAAISYSDGRTYYADSVKGRFTISRDNAKNTVYLQMNSLKPEDTALYYCAAETLYVSPYFYVVQYDYWGQGTQVTVSS | high polyreactivity
12 | QVQLVESGGGLVQAGGSLRLSCAASGTTFDYYAMGWYRQAPGKERELVAVISSSGGSTYYADSVKGRFTISRDNAKNTVYLQMNSLKPEDTAVYYCAALYRNYGSSYAYYYWGQGTQVTVSS | low polyreactivity
13 | QVQLVESGGGLVQAGGSLRLSCAASGGIFGSYAMGWYRHAPGKERELVADITQSGGRTRYADSVKGRFTISRDNAKNTVYLQMNSLKPEDTAVYYCNAQDVDSGDDYDYWGQGTQVTVSS | low polyreactivity
14 | QVQLVQSGAGLVQAGGSLRLSCAPSGRTFWRYPMGLYRQAPGKERELVASISARGGSTYYADSVKGRFTISRDNAKNTVYLQMNSLKPEDTAVYYCKRQSWFTVGGFTYRYDYWGQGTQVTVSS | high polyreactivity
15 | QVQLVESGGGLVQAGGSLRLSCSASGRISNAMGWYRQAPGKERELVATINSGASTNYADSVKGRFTISRDNAKNTVYLQMNSLKPEDTAVYYCNVAYVYGSFRRRPMGYLGQGTQVTVSS | high polyreactivity
16 | QVQLVESGGGLVQAGGSLRLSCAASGSIFVQYAMGWYRQAPGKERELVATISSSGGSTYYADSVKGRFTISRDNAKNTVYLQMNRLKPEDTAVYYCAADWTLDPSYGYYADDYWGQGTQVTVSS | low polyreactivity
17 | QVQLVESVVGLVQAGGSLRLSCAASGSTFLPYTMGWYRQAPGKETELVAGISGSGPRTYYADSVKGRFTISRDNAKNTVYLQMNSLKPEDTAVYYCAKKSSYRYGYWGQGTQVTVSS | high polyreactivity
18 | QVHLVESGGGLVQAGCSLRLSCAASGSIFSYYAMGWYRQAPGKERELVAAISVSGGNYADSVKGRFTISRDNAKNTVYLQMNSLKPEDTAVYYCAALNVYGSADVTTLEMDYWGQGTQVTVSS | low polyreactivity
19 | QVQLVESGGGLVQAGGSLRLSCAASGRTFGIYTMGWYRQAPGKERELVASTYYADSVKGRFTISRDNAKNTVYLQMNSLKPEDTAVYYCNVERLKKSQEWYGYPNDYWGQGTQVTVSS | low polyreactivity
20 | QVQLVESGGGLVQAGGSLRLSCAASGRIFPLYAMGWSRQAPGKERELVAAITSSGGSTYYADSVKGRFTISRDNAKNTVYLQMNSLKPEDTAVYYCAADYSVYWLDYGYWGQGTLVTVSS | low polyreactivity
21 | QVQLVESGGGIVQAGGSLRLSCAASGSTFATYTMGWYRQAPGKERELVAAISSRGGSTYYADSVKGRFTISRDNAKNTVYLQMNSLKPEDTAVYYCNARRSTDPARYYWGQGSQVTVSS | high polyreactivity
22 | QVQLVESGGGLVQAGGSLRLSCAASGSTFRRYAMGWYRQAPGKERELVAGISYSGGRTYYADSVKGRFTISRDNAKNTVYLQMNSLKPEDTAVYYCAAKSFPSVRHHENYYWGQVTQVTVSS | high polyreactivity

Row | Sequence | polyreactivity (PSR sort gate)
23 | QVQLVESGGGLVQAGGSLRLSCAASGRIFPTNAMGWYRQAPGKERELVASITRSGSTYYADSVKGRFTISRDNAKNTVYLQMNSLKPEDTAVYYCAKRYRYSVGWPVKNSAFGYWGQGTQVTVSS | low polyreactivity
24 | QVQLVESGGGLVQAGGSLRLSCAASGRTFTRYAMGLYRPAPGKERELVAAISYIGGRTNYADSVKGRFTISRDNAKKTVYLQMHSLKPEDTAVYYCAASRPWVYYDGLVYWGQGTQVTVTS | high polyreactivity
25 | QVQLVETGGGLVQAGGSLRLSCAASGPTFSRNAKGWYRQAPGKERELVATISRGGGITFYADSVKGRFTISRDNAKNTVYLQMNSLKPEDTAVYYCNADVRYVGLRRIVDYWGQGTQVTVSS | high polyreactivity
26 | QVQLVESGGGLVQAGGSLRLSCAASGSTLQYYDMGWYRQAPGKERELVAAITWSTGTTYYADSVKGRFTISRDNAKNTVYLQMNSLKPEDTAVYYCAVDSYYRATYTNRYDYWGQGTQVTVSS | low polyreactivity
27 | QVQLVESGGGIVQAGGSLRLSCAASGFTFGSNAMGWYRQAPGKERELVAAISRSSGRTYYADSVKGRFTISRDNAKNNVYLHMNSLKQEDTAVYYCDAQTPYRISLQYYYWGQGTQVTVSS | high polyreactivity
28 | QVQLVESGGGLVQAGGSLRLSCAASGRIFDRNAMGWYRQAPGKERELVAAISWSGGRTYYADSVKGRFTISRDNAKNTVYLQMNSLKPEDTAVYYCAADHYPWWAWEFDYWGQGTQVTVSS | low polyreactivity
29 | QVQLVESGVGLVQAGGSLRLSCAASGFILTAYDMGWYRQAPGKERELVAAIDWIGGSTYYADSVKGRFTISRDNAKNTVYLQMNSLKPEDTAVYYCAARFYSYVYRLDYWGQGTQVTVSS | low polyreactivity
30 | QVQLVESGGGLVQAGGSLSLSCAASGFTFTRYVMGWYRQAPGKERELVAAISINGGRTYYADSVKGSFTNSRDNAKNTVYLQMNSLKPEDTAVYYWAAYKTYGSKYVFVDPGEYYYWGQGTQVTVSS | high polyreactivity
31 | QVQLVESGGGFVQAGGSLRLSCAASGRIFAFYTMGWSRQAPGKEREFVAAISRSGGSTYYADSVKGRFTISRDNAKNTVYLQMNSLKPEDTAVYYCAKGGYSPKRVKYYDYWGQGTQVTVSS | low polyreactivity
32 | QVQLVESGGGLVQAGGSLRISCAASGGTFLYYAMGWYRQAPGKERELVAAISRGGSTHYADSVKGRFTISRDNAKNTVYLQMNSLKPEDTAVYYCAVDGGEFSSYGYWGQGTQVTVSS | low polyreactivity
33 | QVQLVESGGGLVQAGGSLRLSCAASGRTLYNYTMGWYRQAPGKERELVATINFSGGSTYYADSVKGRFTISRDNAKNTVYLQMNSLKPEDTAVYYCNARGYHYAYKGAYLGDDYWGQGTQVTVSS | low polyreactivity
34 | QVQLVESGGGLVQAGGSLRLSCAASGFTFATNAMGWYRQAPGTERELVAAISSRGGSTYYADSVKGRFTISRDNAKNTVYLQMNSLKPEDTAVYYCNAYRRLGGYDYWGQGTQVTVSS | high polyreactivity
35 | QVQLVESGGGLVKAGGSLRLSCAASGFILRAYAMGWYRQAPGKEREFVAAITRRGGRTYYADSVKGRFTISRDNAKKTVSLQMYSLKPEDTAVYYCNRVERRGTYDYWGQGTQVTVSS | high polyreactivity
36 | QVQLVESGGGLVQAGGSLRLSCAASGINFGYYTMGWYRQAPGKDREFVAAITANGGRTYYADSVKGRFTLSRDNAKNTVYLKMNSLKPEDTAVYYCNARTYTYRGSFDYWVQGTQVTVSS | high polyreactivity
37 | QVQLVESAGGLVQAGGSLRLSCAASGSIFPAYAMGWYRQAPGKERELVASITTGDRTYYADSVKGRFTISRDNAKNTVYLQMNSLKPEDTAVYYCAALYYVHYYSAHYPTLSRHEYWGPGTQVTVSS | high polyreactivity
38 | QVQLVESGGGLVQAGGSLSLSCADSGRNFAPYAMGWYRQAPGKERELVAAITSGGSTNYADSVKGRFTISRDNAKNTVYLQMNSLKPEDTAVYYCAARQPGTRYPYDYWGQGTQVTVSS | high polyreactivity
39 | QVQLVESGGGLVQAGGSLRLSCAASGSTLVLNALGWYRQAPGKERELVAAITISGDTTYYADSVKGRFTISRDNAKNTVYLQMNSLKPEDTAVYYCAAVVSTVDGMEYWGQGTQVTVSS | low polyreactivity
40 | QVHLLESGGGLVQAGGSLRLSCAASGRTLSRYTMGWYRQAPGKERELVAAISTSGSTYYADSVKGRFTISRDNAKNTVYLPMNCLKPEDTAVYYCAATHWAYSRVPYDYWGQGTQVTVSS | high polyreactivity
41 | QVHLVESGGGLVQEGGSLRLTSAASGITFVRNTLGWYRQAPGKERELVAAIDSGGNTYADSVKGRFTITRDNAKNTVYLQMNSLKPEDTAVYFCAVDGGEVSSYGYWGQGTQVTVSS | low polyreactivity
42 | QVQLVESGGGLVQAGGSLRLSCAASGRTFWYYAMGWYRQAPGKERELVAASTYRGGSTYYADSVKGRFTISRDNVKNTVYLQMNSLKPEDTAVYYCAAPYGEDYWRQGTQVTVSS | high polyreactivity
43 | QVQLVESGGGLVQAGGSLRLSCAATGITFYINAMGSYRQAPGKERELVAVIDSRGSSTFYADSVKGRFTISLDYAKNTVYLQMNSLKPEDTAVYYCAVEGYPGRYRDPGDLYYYWGQGTQVTVSS | low polyreactivity
